B1: polypeptide of SEQ ID NO:31 (a specific polypeptide of SEQ ID NO: 10, s1m1 family VacA-derived polypeptide) (other)
chain: AFFTTVIIPAIVGGIATGTAVGTVSGLLGWGLKQAEEANKTPDKPDKVWRIQAGKGFNEFPNKEYDLYKSLLSSKIDGGWDWGNAATHYWIKGGQWNKLEVDMKDAVGTYKLSGLRNFTGGDLDVNMQKATLRLGQFNGNSFTSYKDSADRTTRVDFNAKNILIDNFLEINNRVGSGAGRKASSTVLTLQASEGITSSKNAEISLYDGATLNLASNSVKLNGNVWMGRLQYVGAYLAPSYSTINTSKVTGEVNFNHLTVGDHNAAQAGIIASNKTHIGTLDLWQSAGLNIIAPPGGKDTVVNIDRINTKADGTIKVGGFKASLTTNAAHLNIGKGGVNLSNQASGRTLLVENLTGNITVDGPLRVNNQVGGYALAGSSANFEFKAGVDTKNGTATFNNDISLGRFVNLKVDAHTANFKGIDTGNGGFNTLDFSGVTNKVNINKLITASTNVAVKNFNINELIVKTNGVSVGEYTHFSEDIGSQSRINTVRLETGTRSIFSGGVKFKSGEKLVIDEFYYSPWNYFDARNIKNVEITRKFASSTPENPWGTSKLMFNNLTLGQNAVMDYSQFSNLTIQGDFINNQGTINYLVRGGKVATLNVGNAAAMMFNNDIDSATGFYKPLIKINSAQDLIKNTEHVLLKAKIIGYGNVSTGTNGISNVNLEEQFKERLALYNNNNRMDTCVVRNTDDIKACGMAIGNQSMVNNPDNYKYLIGKAWKNIGISKTANGSKISVYYLGNSTPTENGGNTTNLPTNTTNNARFASYA
notes: Engineered polypeptide derived from the H. pylori VacA s1m1 family, expressed in CHO or HEK cells and purified
B2: human TGFβ receptor 1 (receptor, UniProt P36897 34-126, looked up)
chain: LQCFCHLCTKDNFTCVTDGLCFVSVTETTDKVIHNSMCIAEIDLIPRDRPFVCAPSSKTGSVTTTYCCNQDHCNKIELPTTVKSSPGLGPVEL
notes: Immobilised on a CM5 sensor by direct amine coupling; also called TGFβ R1; TGF-bR1

Assays:
human TGFβ receptor 2 [1] = target: T1, human TGFβ receptor 2 (human, UniProt P37173 23-166, limits assumed); assay: SPR (Biacore T200), TGFβ R2 amine-coupled on CM5, multi-cycle, two-state kinetic model
T1 construct: Immobilised on a CM5 sensor by direct amine coupling; also called TGFβ R2; TGFB-R2
T1 sequence (P37173 23-166 limits assumed): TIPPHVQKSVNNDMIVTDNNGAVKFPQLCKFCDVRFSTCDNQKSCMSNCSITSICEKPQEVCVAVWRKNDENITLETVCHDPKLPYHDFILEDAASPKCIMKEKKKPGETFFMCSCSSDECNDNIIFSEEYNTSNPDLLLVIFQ

human TGFβ receptor 2 [2] = target: T1, human TGFβ receptor 2; assay: SPR (Biacore T200), TGFβ R2 amine-coupled on CM5, equilibrium model
[3] = target: B1; assay: SPR (Biacore T200), TGFβ R1 amine-coupled on CM5, equilibrium model
[4] = target: B1; assay: SPR (Biacore T200), TGFβ R1 amine-coupled on CM5, multi-cycle, two-state kinetic model

Binder | Kd (human TGFβ receptor 2 [1]) [µM] | koff (human TGFβ receptor 2 [1]) [s⁻¹] | kon (human TGFβ receptor 2 [1]) [M⁻¹ s⁻¹] | Kd (human TGFβ receptor 2 [2]) [µM] | Kd [3] [µM] | Kd [4] [µM] | koff [4] [s⁻¹] | kon [4] [M⁻¹ s⁻¹]
B1 | 5.07 | 6670 | 1.08e+09 | 5.61 | – | – | – | –
B2 | – | – | – | – | 2.9 | 2.31 | 0.603 | 220000
